# In article PMC4266924:
# Values joined by “and” are separate entries in the source; they are usually repeats but may differ in a detail not shown here. Equal values may be shown once.
# How the values were obtained:
# [1] = molecular target: xα2(S38–S107) peptide of murine 18.5 kDa myelin basic protein (mouse); assay: NMR titration; unlabelled Fyn–SH3 titrated into 0.8 mM 15N-labelled xα2-peptide; 2D 15N-HSQC; 20 mM Hepes, 100 mM NaCl, 10% 2H2O, pH 7.4; molar ratios 1:0 to 1:1.2; fractional saturation fit of Y65 and T95 shifts; KD values are only estimates
# [2] = molecular target: full-length, untagged 18.5-kDa murine MBP (A1-R168) (mouse); assay: ITC; Fyn-SH3 (0.7-1.3 mM) injected into the cell with MBP (45-80 uM); 20 mM HEPES, 100 mM NaCl, pH 7.4; 22 °C; 3 independent measurements; one-set of sites model; apparent values, first 3-4 points excluded (aggregation)
# Sequence of full-length, untagged 18.5-kDa murine MBP (A1-R168) (mouse) (P02686 other isoform, or with tags, fused parts or gaps): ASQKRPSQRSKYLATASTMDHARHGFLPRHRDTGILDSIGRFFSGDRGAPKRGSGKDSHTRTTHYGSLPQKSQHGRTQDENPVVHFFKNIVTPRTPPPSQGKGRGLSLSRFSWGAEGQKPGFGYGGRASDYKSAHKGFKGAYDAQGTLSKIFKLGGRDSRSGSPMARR
# [3] = molecular target: full-length, untagged 18.5-kDa murine MBP (A1-R168) (mouse); assay: ITC; Fyn-SH3 (0.7-1.3 mM) injected into the cell with MBP (45-80 uM); 20 mM HEPES, 100 mM NaCl, pH 7.4; 37 °C; 2 independent measurements; one-set of sites model; apparent values, first 3-4 points excluded (aggregation)
Substance,Kd [1],Kd [2] [µM],stoichiometry N [2],Kd [3] [µM],stoichiometry N [3]
"Fyn–SH3 domain (Gallus gallus Fyn tyrosine kinase, residues 85–142) (from UniProt Q05876 85-142) (domain or fragment)",7.6 µM and 4 µM,,,,
"Fyn-SH3 domain (Gallus gallus Fyn, residues 85-142) (from UniProt Q05876 85-142) (domain or fragment)",,5,0.6,5,1.2
